This is an account of results in patent US20250263481A1.

Test [1] concerns the target recombinant huCLDN18.2-Fc (human). The test is described as follows: KinExA 4000, equilibrium in solution, antibody constant, huCLDN18.2-Fc titrated. In general terms: Kinetic exclusion samples the free partner from a solution-phase mixture.
Test [2] concerns the target His-tagged human Claudin-18.2 (human). Kind of test: SPR, Biacore 8K, antibody captured by anti-human IgG (Fc), His-tagged human Claudin-18.2 as analyte. (In general: SPR reads the build-up and loss of mass on a sensor chip optically.)
Test [3] deals with human CLDN18.2 expressed on cells (human). The test is described as follows: cell-based or functional assay.
For test [4] the target is unchanged. The test is described as follows: flow cytometry (geometric mean, Alexa Fluor 647 anti-human IgG Fc secondary) on CLDN18.2-expressing 293T cells. A general note: In flow cytometry, cells or beads pass a laser one at a time.

Residue numbers refer to the chain shown, from its start.

B1: YL-G2-B (antibody, human IgG1, kappa)
heavy: EVQLQQSGPELEKPGASVKISCKASGYSFTGYKMNWVKQSNGKSLEWIGNIDPYYGGTTYNQKFKGKATLTVDKSSSTAYMQLKSLTSEDSAVYYCARYGKGNTMDYWGQGTSVTVSSASTKGPSVFPLAPSSKSTSGGTAALGCLVKDYFPEPVTVSWNSGALTSGVHTFPAVLQSSGLYSLSSVVTVPSSSLGTQTYICNVNHKPSNTKVDKRVEPKSCDKTHTCPPCPAPELVGGPSVFLLPPKPKDTLMISRTPEVTCVVVDVSHEDPEVKFNWYVDGVEVHNAKTKPPEEQYNSTLRVVSVLTVLHQDWLNGKEYKCKVSNKALPAPIEKTISKAKGQPREPQVYTLPPSREEMTKNQVSLTCLVKGFYPSDIAVEWESNGQPENNYKTTPLVLDSDGSFFLYSKLTVDKSRWQQGNVFSCSVMHEALHNHYTQKSLSLSPGK
light: DIVMTQSPSSLTVTAGEKVTMSCKSSQSLLNSGNQKNYLTWYQQRPGQPPKLLIYWASTRESGVPVRFTGSGSGTDFTLTISSVQAEDLAVYYCQNAYIYPLTFGTGTKLELKRTVAAPSVFIFPPSDEQLKSGTASVVCLLNNFYPREAKVQWKVDNALQSGNSQESVTEQDSKDSTYSLSSTLTLSKADYEKHKVYACEVTHQGLSSPVTKSFNRGEC
Regarding B1, in test [1], the dissociation constant Kd turned out to be 1.7 nM. In test [2], this molecule yielded a Kd of 2.05 nM, a koff of 0.0014 s⁻¹ and a kon of 686000 M⁻¹ s⁻¹.

B2: YL-G2-C (antibody, human IgG1, kappa)
heavy: QIQLVQSGPELRKPGETVKISCKASGFPFTTDGMSWVKQAPGKGLKWMGWINTYSGVPTYADDFKGRVAFSLETSASTAYLQIKNLKNEDTATYFCARFRRGNALDNWGQGTSVTVSSASTKGPSVFPLAPSSKSTSGGTAALGCLVKDYFPEPVTVSWNSGALTSGVHTFPAVLQSSGLYSLSSVVTVPSSSLGTQTYICNVNHKPSNTKVDKRVEPKSCDKTHTCPPCPAPELVGGPSVFLLPPKPKDTLMISRTPEVTCVVVDVSHEDPEVKFNWYVDGVEVHNAKTKPPEEQYNSTLRVVSVLTVLHQDWLNGKEYKCKVSNKALPAPIEKTISKAKGQPREPQVYTLPPSREEMTKNQVSLTCLVKGFYPSDIAVEWESNGQPENNYKTTPLVLDSDGSFFLYSKLTVDKSRWQQGNVFSCSVMHEALHNHYTQKSLSLSPGK
light: B1 light with R45K, V66D, V91I, A97N, I99F, T106A, K109R
With B2, in test [1], the Kd was 3.8 nM. For the same molecule, in test [2], the Kd was determined as 1.11 nM, the koff worked out at 0.000591 s⁻¹ and the kon was 532000 M⁻¹ s⁻¹.

B3: YL-G2-D (antibody, human IgG1, kappa)
heavy: QLQQSGPELEKPGASVKISCKASGYSFTGYKMNWVKQSNGESLEWIGNIDPYYGDTTYTQKFKGKATFTVDTSSSTAYMQLKSLTSEDSAVYFCARYNRGNTMDYWGQGTSVTVSSASTKGPSVFPLAPSSKSTSGGTAALGCLVKDYFPEPVTVSWNSGALTSGVHTFPAVLQSSGLYSLSSVVTVPSSSLGTQTYICNVNHKPSNTKVDKRVEPKSCDKTHTCPPCPAPELVGGPSVFLLPPKPKDTLMISRTPEVTCVVVDVSHEDPEVKFNWYVDGVEVHNAKTKPPEEQYNSTLRVVSVLTVLHQDWLNGKEYKCKVSNKALPAPIEKTISKAKGQPREPQVYTLPPSREEMTKNQVSLTCLVKGFYPSDIAVEWESNGQPENNYKTTPLVLDSDGSFFLYSKLTVDKSRWQQGNVFSCSVMHEALHNHYTQKSLSLSPGK
light: B1 light with M21L, T75A, Y93F, I99F, K113R
Take B3: in test [1], the Kd came to 6.4 nM. Further, in test [2], the Kd turned out to be 1.02 nM, the koff came out at 0.000722 s⁻¹ and the kon is 707000 M⁻¹ s⁻¹.

B4: reference mAb (IMAB362, Ganymed) (antibody, INN chains, looked up, V domains shown)
VH: QVQLQQPGAELVRPGASVKLSCKASGYTFTSYWINWVKQRPGQGLEWIGNIYPSDSYTNYNQKFKDKATLTVDKSSSTAYMQLSSPTSEDSAVYYCTRSWRGNSFDYWGQGTTLTVSS
VL: DIVMTQSPSSLTVTAGEKVTMSCKSSQSLLNSGNQKNYLTWYQQKPGQPPKLLIYWASTRESGVPDRFTGSGSGTDFTLTISSVQAEDLAVYYCQNDYSYPFTFGSGTKLEIKR
On to B4, for which, in test [3], the ADCC on KATOIII CLDN18.2 cells, LDH: EC50 (run A) is 0.12 nM; the ADCC on KATOIII CLDN18.2 cells, LDH: EC50 (run B) was found to be 0.22 nM; the ADCC on KATOIII CLDN18.2 cells, LDH: EC50 (run C) was 0.27 nM; the ADCC on KATOIII CLDN18.2 cells, LDH: max (% cytotoxity) (run A) was 27.9%. In test [3], this molecule had an ADCC on KATOIII CLDN18.2 cells, LDH: max (% cytotoxity) (run B) of 24.5%; an ADCC on KATOIII CLDN18.2 cells, LDH: max (% cytotoxity) (run C) of 24.5%; an ADCC on NCI-N87 CLDN18.2 cells, LDH: EC50 (run A) of 0.057 nM; an ADCC on NCI-N87 CLDN18.2 cells, LDH: EC50 (run B) of 0.082 nM. Also, in test [3], the ADCC on NCI-N87 CLDN18.2 cells, LDH: EC50 (run C) came out at 0.1 nM; the ADCC on NCI-N87 CLDN18.2 cells, LDH: max (% cytotoxity) (run A) turned out to be 26.1%; the ADCC on NCI-N87 CLDN18.2 cells, LDH: max (% cytotoxity) (run B) amounted to 22.1%; the ADCC on NCI-N87 CLDN18.2 cells, LDH: max (% cytotoxity) (run C) was determined as 21.1%. In test [3], this molecule gave a CDC on CT26 CLDN18.2 cells, LDH: EC50 (run A) of 11.5 nM; a CDC on CT26 CLDN18.2 cells, LDH: EC50 (run B) of 10.7 nM; a CDC on CT26 CLDN18.2 cells, LDH: EC50 (run C) of 11.9 nM; a CDC on CT26 CLDN18.2 cells, LDH: max (% cytotoxity) (run A) of 72.5%. In test [3], the CDC on CT26 CLDN18.2 cells, LDH: max (% cytotoxity) (run B) came to 54.7%; the CDC on CT26 CLDN18.2 cells, LDH: max (% cytotoxity) (run C) was found to be 51.6%; the CDC on KATOIII CLDN18.2 cells, LDH: EC50 (run A) came to 38.1 nM; the CDC on KATOIII CLDN18.2 cells, LDH: EC50 (run B) turned out to be 22.7 nM. In test [3], this molecule showed a CDC on KATOIII CLDN18.2 cells, LDH: EC50 (run C) of 27.5 nM; a CDC on KATOIII CLDN18.2 cells, LDH: max (% cytotoxity) (run A) of 29.7%; a CDC on KATOIII CLDN18.2 cells, LDH: max (% cytotoxity) (run B) of 46%; a CDC on KATOIII CLDN18.2 cells, LDH: max (% cytotoxity) (run C) of 34.9%. The EC50 (read off the curve) in test [4] is 0.8 µg/mL.

Broadly, the Kd is the constant that tells how readily two partners part at equilibrium. What is called koff is the rate constant with which the complex falls apart. Lower therefore signals a long-lived complex. As usually defined, the kon is the rate constant with which the complex forms. Low values mean slower complex formation, high ones faster complex formation. For orientation: EC50 (read off the curve) means the concentration giving half of the maximal effect. Read a low EC50 (read off the curve) as higher potency in that assay.
